Consider four molecules from paper PMC4026020.

In data set [1] the target is T1, MBP-AtTZF1 TZF (Arabidopsis thaliana, UniProt O82307 129-195).
T1 sequence: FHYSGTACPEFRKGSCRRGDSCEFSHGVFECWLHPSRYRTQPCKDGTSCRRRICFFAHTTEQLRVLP
As to the kind of experiment: fluorescence anisotropy.

The target of a further data set is T2, GST-AtTZF1 full-length (Arabidopsis thaliana, UniProt O82307 1-315).
T2 sequence: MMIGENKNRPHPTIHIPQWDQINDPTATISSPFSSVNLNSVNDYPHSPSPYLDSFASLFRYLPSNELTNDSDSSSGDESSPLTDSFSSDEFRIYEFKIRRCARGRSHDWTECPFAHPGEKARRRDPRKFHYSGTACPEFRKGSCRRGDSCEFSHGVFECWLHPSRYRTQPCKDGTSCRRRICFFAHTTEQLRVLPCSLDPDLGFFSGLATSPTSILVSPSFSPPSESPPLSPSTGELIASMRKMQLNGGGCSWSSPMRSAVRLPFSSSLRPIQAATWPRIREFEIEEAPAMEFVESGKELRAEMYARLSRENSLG
As to the kind of experiment: fluorescence anisotropy.

Data set [2] addresses T3, MBP-AtTZF1 RR-TZF (Arabidopsis thaliana, UniProt O82307 86-195).
T3 sequence: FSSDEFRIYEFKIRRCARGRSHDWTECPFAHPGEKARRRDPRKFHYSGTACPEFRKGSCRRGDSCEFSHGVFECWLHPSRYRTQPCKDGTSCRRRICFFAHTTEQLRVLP
In words: fluorescence anisotropy. In general terms: In fluorescence polarisation assays a small probe gives low polarisation when free and higher when bound to something large.

The target of data set [3] is T3, MBP-AtTZF1 RR-TZF. In words: EMSA. Background: Mobility shift assays separate free from complexed probe on a gel.
For a further data set, the target named is T4, MBP-AtTZF1 RR (Arabidopsis thaliana, UniProt O82307 86-128).
T4 chain: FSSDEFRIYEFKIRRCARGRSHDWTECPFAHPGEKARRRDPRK
In words: EMSA.

Data set [4] has as its target T1, MBP-AtTZF1 TZF. In words: EMSA.

A word on the Kd: it is the free concentration of one partner at which half of the binding sites on the other are occupied at equilibrium, for simple one-to-one binding. A lower Kd goes with a tighter complex.

In the case of UUUUUUUUUUUUUUUUUUU (ssRNA) [Fl-polyU], the figures for the Kd with MBP-AtTZF1 TZF [1], in the data set with GST-AtTZF1 full-length and with MBP-AtTZF1 RR-TZF [2] were 7.37 ± 0.12 µM, 2.27 ± 0.19 µM and 0.47 ± 0.03 µM, respectively.
As for UGUUUGUUGUUUGUUUGUU (ssRNA) [MutG], the binding result with MBP-AtTZF1 RR-TZF [3] is “no binding”.
Take UAUUUAUUAUUUAUUUAUU (ssRNA) [Fl-ARE19]: the Kd in the data set with GST-AtTZF1 full-length amounted to 4.55 ± 0.13 µM; in the data set with MBP-AtTZF1 RR-TZF [2] it was 0.41 ± 0.05 µM.
Take UAUUUAUUAUUUAUUUAUU (ssRNA) [ARE19]: the binding result with MBP-AtTZF1 RR and with MBP-AtTZF1 TZF [4] was “no binding” each time.
